According to patent US20070020706A1 (UNIVERSITY HOSPITALS OF CLEVELAND, published 2007):

B1: full-length human P2X7 receptor (receptor)
chain: MPACCSCSDVFQYETNKVTRIQSMNYGTIKWFFHVIIFSYVCFALVSDKLYQRKEPVISSVHTKVKGIAEVKEEIVENGVKKLVHSVFDTADYTFPLQGNSFFVMTNFLKTEGQEQRLCPEYPTRRTLCSSDRGCKKGWMDPQSKGIQTGRCVVHEGNQKTCEVSAWCPIEAVEEAPRPALLNSAENFTVLIKNNIDFPGHNYTTRNILPGLNITCTFHKTQNPQCPIFRLGDIFRETGDNFSDVAIQGGIMGIEIYWDCNLDRWFHHCHPKYSFRRLDDKTTNVSLYPGYNFRYAKYYKENNVEKRTLIKVFGIRFDILVFGTGGKFDIIQLVVYIGSTLSYFGLAAVFIDFLIDTYSSNCCRSHIYPWCKCCQPCVVNEYYYRKKCESIVEPKPTLKYVSFVDESHIRMVNQQLLGRSLQDVKGQEVPRPAMDFTDLSRLPLALHDTPPIPGQPEEIQLLRKEATPRSRDSPVWCQCGSCLPSQLPESHRCLEELCCRKKPGACITTSELFRKLVLSRHVLQFLLLYQEPLLALDVDSTNSRLRHCAYRCYATWRFGSQDMADFAILPSCCRWRIRKEFPKSEGQYSGFKSPY
notes: Expressed from cDNA in HEK-293 cells or endogenous in human cells and tissues (CaSki, HeLa, cervical tissue); Mostly assayed in cell extracts on immunoblots, where it runs as 65, 75 and 85 kDa forms; also called P2X7-RFL; P2X7-WT
B2: truncated P2X7-j receptor protein (receptor)
chain: MPACCSCSDVFQYETNKVTRIQSMNYGTIKWFFHVIIFSYVCFALVSDKLYQRKEPVISSVHTKVKGIAEVKEEIVENGVKKLVHSVFDTADYTFPLQGNSFFVMTNFLKTEGQEQRLCPEYPTRRTLCSSDRGCKKGWMDPQSKGIQTGRCVVHEGNQKTCEVSAWCPIEAVEEAPRPALLNSAENFTVLIKNNIDFPGHNYTTRNILPGLNITCTFHKTQNPQCPIFRLGDIFRETGDNFSDVAIQIRQVLQGKQC
notes: Untagged P2X7-j, expressed in HEK-293 cells or endogenous in human cancer cell lines; Runs as 42-45 kDa bands; also called P2X7-RTR

Assays:
Assay in all cases: densitometry of oligomer bands on an immunoblot, HEK293 cells co-expressing P2X7 and P2X7-j
[1] = target: B2
[2] = target: the molecule itself
[3] = target: B1

Row | relative band density (ratio) [1] [ratio parts] | relative band density (ratio) [3] [ratio parts] | Binder | relative band density (ratio) [2] [ratio parts]
1 | 5 | – | B1 | 10
2 | – | 15 | B2 | 70
